Common to all, as to details: both partners purified
One experiment has as its target T1, Mnl1 (C579S)–FLAG (S. cerevisiae, UniProt P38888 21-796, C579S).
T1 construct: Mnl1 (Htm1) of S. cerevisiae with a substituted loop cysteine; source: S. cerevisiae, overexpressed together with Pdi1, purified as a complex (anti-FLAG M2 resin, Superdex 200); not shown: FLAG, C-terminal, kept
T1 sequence (looked up): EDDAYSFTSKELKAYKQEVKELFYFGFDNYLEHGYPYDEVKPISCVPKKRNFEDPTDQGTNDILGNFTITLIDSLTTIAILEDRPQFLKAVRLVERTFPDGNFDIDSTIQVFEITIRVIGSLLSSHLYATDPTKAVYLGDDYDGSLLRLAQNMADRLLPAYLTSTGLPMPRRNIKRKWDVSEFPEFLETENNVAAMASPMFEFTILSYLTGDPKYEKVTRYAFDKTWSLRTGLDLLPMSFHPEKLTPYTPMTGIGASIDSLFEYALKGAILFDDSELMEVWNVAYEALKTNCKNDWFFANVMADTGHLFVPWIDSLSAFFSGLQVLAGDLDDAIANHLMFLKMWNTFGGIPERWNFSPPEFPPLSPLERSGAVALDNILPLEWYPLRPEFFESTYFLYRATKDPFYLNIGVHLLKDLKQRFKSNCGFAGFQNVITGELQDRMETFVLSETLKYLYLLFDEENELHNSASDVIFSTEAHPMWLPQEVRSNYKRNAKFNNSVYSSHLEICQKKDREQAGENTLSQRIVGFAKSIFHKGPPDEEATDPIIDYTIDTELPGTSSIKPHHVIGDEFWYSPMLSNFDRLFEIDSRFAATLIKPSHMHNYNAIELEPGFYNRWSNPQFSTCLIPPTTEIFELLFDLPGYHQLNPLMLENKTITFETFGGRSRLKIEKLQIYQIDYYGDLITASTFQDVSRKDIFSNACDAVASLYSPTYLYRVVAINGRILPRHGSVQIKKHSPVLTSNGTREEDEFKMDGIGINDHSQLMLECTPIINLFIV
Description: cross-linking; purified complexes of Pdi1 with wild-type or mutant Mnl1 incubated with increasing concentrations of DPS (2,2′-dipyridyldisulfide) to induce disulfides; non-reducing SDS-PAGE, Coomassie blue.

The target in another experiment is T2, Mnl1–FLAG (S. cerevisiae, UniProt P38888 21-796).
T2 construct: Mnl1 (Htm1), luminal ER mannosidase of S. cerevisiae; MHD amino acids 29–514, loop 515–650, CTD 651–796; called 'Full-length' against Mnl1ΔC; The end of the FLAG tag is stated for the GAL1 plasmid; also called Htm1; FLAG-tagged Mnl1; not shown: FLAG, C-terminal, kept
T2 sequence (looked up): T1 sequence (looked up) with S559C
Description: cryo-EM structure; Mnl1–FLAG–Pdi1 complex at 1 mg/ml, purified from detergent-treated yeast membranes with anti-FLAG beads and by size-exclusion chromatography as a 1:1 complex; 25 mM HEPES pH 7.4, 150 mM NaCl.

A further experiment has as its target T3, Mnl1 mCTD–FLAG (S. cerevisiae, UniProt P38888 21-796, L655N | F770Y | M772K).
T3 construct: Mnl1 (Htm1) of S. cerevisiae with three hydrophobic residues of the CTD groove changed to hydrophilic ones; source: S. cerevisiae, overexpressed together with Pdi1, purified as a complex (anti-FLAG M2 resin, Superdex 200); not shown: FLAG, C-terminal, kept
T3 sequence (looked up): T1 sequence (looked up) with S559C, L635N, F750Y, M752K
Description: cross-linking; competition: RBΔS, RBun or RBsc incubated with Mnl1–Pdi1 complex at the indicated molar ratios (tenfold excess in Fig. 6) in 25 mM HEPES pH 7.4, 150 mM NaCl, 0.1% Nonidet P-40, 2 mM CaCl2, 30 °C 30 min; then DPS 30 °C 30 min, N-ethylmaleimide; SDS-PAGE, Coomassie blue.

Numbering of substitutions follows the chain as printed.

B1: Pdi1 (protein disulfide isomerase) (enzyme, S. cerevisiae, UniProt P17967 29-522, looked up)
chain: PEDSAVVKLATDSFNEYIQSHDLVLAEFFAPWCGHCKNMAPEYVKAAETLVEKNITLAQIDCTENQDLCMEHNIPGFPSLKIFKNSDVNNSIDYEGPRTAEAIVQFMIKQSQPAVAVVADLPAYLANETFVTPVIVQSGKIDADFNATFYSMANKHFNDYDFVSAENADDDFKLSIYLPSAMDEPVVYNGKKADIADADVFEKWLQVEALPYFGEIDGSVFAQYVESGLPLGYLFYNDEEELEEYKPLFTELAKKNRGLMNFVSIDARKFGRHAGNLNMKEQFPLFAIHDMTEDLKYGLPQLSEEAFDELSDKIVLESKAIESLVKDFLKGDASPIVKSQEIFENQDSSVFQLVGKNHDEIVNDPKKDVLVLYYAPWCGHCKRLAPTYQELADTYANATSDVLIAKLDHTENDVRGVVIEGYPTIVLYPGGKKSESVVYQGSRSLDSLFDFIKENGHFDVDGKALYEEAQEKAAEEADADAELADEEDAIHDEL
notes: Pdi1, protein disulfide isomerase of S. cerevisiae, untagged; Trx domains a, b, b′ and a′; amino acids 24–500 could be modelled; source: S. cerevisiae, overexpressed together with Mnl1–FLAG (GAL1 promoter), purified as a complex
In general, stoichiometry N refers to the number of molecules, sites or subunits per partner or assembly. In the case of B1, the binding result with Mnl1 (C579S)–FLAG and in the experiment with Mnl1 mCTD–FLAG was “binds” in each case. In addition, the “stoichiometry N” value with Mnl1–FLAG came to 1.

For the origin of these results see article PMC12170172, “Initiation of ERAD by the bifunctional complex of Mnl1/Htm1 mannosidase and protein disulfide isomerase” (Nature Structural & Molecular Biology, 2025).
